Source: US20210171613A1

Target: Clostridium difficile toxin A (TcdA) (Clostridium difficile), P16154
Experiment: SPR (Biacore 3000), VHH over immobilized TcdA, 1:1 fit
Conditions: remark: other sources report otherwise

Clostridium difficile toxin A (TcdA) (Clostridium difficile), P16154, sequence (P16154 whole entry): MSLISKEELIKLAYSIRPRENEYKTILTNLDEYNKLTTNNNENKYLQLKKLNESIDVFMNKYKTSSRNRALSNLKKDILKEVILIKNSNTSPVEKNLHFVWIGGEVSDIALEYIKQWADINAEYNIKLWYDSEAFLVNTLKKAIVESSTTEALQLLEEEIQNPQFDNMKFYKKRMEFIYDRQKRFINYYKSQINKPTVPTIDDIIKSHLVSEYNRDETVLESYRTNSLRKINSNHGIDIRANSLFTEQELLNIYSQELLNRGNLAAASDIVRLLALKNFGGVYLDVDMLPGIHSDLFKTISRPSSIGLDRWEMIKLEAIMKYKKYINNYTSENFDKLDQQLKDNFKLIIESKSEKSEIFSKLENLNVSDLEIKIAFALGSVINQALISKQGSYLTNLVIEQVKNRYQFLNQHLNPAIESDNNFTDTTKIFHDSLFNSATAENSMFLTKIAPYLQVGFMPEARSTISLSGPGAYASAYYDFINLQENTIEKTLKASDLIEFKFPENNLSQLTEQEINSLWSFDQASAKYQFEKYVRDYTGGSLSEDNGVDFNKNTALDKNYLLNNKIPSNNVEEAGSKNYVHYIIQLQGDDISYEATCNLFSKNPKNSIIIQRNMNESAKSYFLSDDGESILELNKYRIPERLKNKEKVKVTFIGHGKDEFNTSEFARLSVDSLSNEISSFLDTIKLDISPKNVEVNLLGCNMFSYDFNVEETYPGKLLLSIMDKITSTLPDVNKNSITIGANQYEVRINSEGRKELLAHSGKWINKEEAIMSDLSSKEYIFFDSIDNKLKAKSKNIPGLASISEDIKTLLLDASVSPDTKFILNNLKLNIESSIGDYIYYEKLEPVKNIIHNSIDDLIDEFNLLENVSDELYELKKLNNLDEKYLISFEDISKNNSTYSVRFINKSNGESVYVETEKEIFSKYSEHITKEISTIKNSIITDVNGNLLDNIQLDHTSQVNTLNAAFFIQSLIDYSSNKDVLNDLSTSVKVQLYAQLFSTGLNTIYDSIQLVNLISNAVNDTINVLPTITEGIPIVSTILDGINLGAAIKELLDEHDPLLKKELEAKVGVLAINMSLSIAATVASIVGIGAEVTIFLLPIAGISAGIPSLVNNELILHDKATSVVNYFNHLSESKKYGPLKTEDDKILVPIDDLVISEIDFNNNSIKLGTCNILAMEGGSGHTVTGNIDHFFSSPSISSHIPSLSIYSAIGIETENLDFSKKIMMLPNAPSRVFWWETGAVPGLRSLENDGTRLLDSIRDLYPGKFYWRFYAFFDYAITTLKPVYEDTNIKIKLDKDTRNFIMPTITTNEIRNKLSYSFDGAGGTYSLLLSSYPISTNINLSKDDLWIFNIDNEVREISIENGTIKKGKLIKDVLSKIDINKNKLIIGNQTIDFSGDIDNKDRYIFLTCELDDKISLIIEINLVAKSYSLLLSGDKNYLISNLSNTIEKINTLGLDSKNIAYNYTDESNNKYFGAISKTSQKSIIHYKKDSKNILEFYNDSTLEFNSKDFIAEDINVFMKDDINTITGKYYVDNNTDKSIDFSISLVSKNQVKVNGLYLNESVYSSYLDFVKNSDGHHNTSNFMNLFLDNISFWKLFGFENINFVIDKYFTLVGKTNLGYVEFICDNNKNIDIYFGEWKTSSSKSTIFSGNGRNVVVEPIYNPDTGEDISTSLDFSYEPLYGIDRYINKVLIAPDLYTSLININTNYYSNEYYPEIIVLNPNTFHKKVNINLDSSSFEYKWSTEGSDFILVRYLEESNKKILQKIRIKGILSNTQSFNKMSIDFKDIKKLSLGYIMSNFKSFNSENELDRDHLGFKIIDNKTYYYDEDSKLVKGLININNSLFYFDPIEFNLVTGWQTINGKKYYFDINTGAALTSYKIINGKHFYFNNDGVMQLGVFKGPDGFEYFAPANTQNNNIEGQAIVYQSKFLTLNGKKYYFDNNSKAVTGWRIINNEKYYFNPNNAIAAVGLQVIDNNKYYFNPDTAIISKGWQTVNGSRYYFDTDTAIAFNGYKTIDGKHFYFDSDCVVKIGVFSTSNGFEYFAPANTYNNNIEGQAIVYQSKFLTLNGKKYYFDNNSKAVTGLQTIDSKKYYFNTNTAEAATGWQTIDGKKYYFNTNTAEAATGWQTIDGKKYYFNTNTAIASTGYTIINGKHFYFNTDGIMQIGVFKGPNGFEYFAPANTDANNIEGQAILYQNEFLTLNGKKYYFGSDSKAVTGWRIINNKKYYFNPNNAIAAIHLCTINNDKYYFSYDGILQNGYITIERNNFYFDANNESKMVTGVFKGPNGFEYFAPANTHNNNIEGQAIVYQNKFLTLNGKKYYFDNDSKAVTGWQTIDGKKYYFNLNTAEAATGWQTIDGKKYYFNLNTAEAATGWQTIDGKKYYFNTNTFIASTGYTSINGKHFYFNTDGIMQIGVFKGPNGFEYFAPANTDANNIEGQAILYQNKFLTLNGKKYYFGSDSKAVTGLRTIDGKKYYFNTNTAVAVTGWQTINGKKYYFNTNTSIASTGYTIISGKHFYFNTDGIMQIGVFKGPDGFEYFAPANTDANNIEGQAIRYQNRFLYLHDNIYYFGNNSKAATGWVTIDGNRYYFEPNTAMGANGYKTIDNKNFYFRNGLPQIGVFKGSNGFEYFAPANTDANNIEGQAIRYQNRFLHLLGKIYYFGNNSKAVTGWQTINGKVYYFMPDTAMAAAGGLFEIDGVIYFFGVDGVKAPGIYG

B1: Parent A26.8 VHH (VHH, not shown: small tags and cut ends)
VHH: QVKLEESGGGLVQAGGSLRLSCAASERTFSRYPVAWFRQAPGAEREFVAVISSTGTSTYYADSVKGRFTISRDNAKVTVYLQMNNLKREDTAVYFCAVNSQRTRLQDPNEYDYWGQGTQVTVSS
Kd: 18.7 nM
